Where two headings read alike, the source gives them in different places.
Assays:
Experiment in all cases: binding ELISA, biotinylated peptide on neutravidin plate, Fab titrated
Peptide-128 = biological target: T1, Peptide-128
T1 peptide: YCEGHSQEYLWKCL

Peptide-125 = biological target: T2, Peptide-125
T2 peptide: YCEGHLPEYLGKCL

Peptide-127 = biological target: T3, Peptide-127
T3 peptide: YCEGHLPEYLAKCL

Peptide-129 = biological target: T4, Peptide-129
T4 peptide: YCEGHSSEYIQKCL

Peptide-121 = biological target: T5, Peptide-121
T5 peptide: YCEGHAPEYIAKCL

Peptide-120 = biological target: T6, Peptide-120
T6 peptide: YCEGHLPEYIEKCL

Peptide-124 = biological target: T7, Peptide-124
T7 peptide: YCEGHSQENIWKCL

Peptide-135 = biological target: T8, Peptide-135
T8 peptide: YCEGHLPEYIWKCL

Peptide-132 = biological target: T9, Peptide-132
T9 peptide: YCEGHLPEYRNKCL

Peptide-117 = biological target: T10, Peptide-117
T10 peptide: YCEGHSPEYILKCL

Peptide-123 = biological target: T11, Peptide-123
T11 peptide: YCEGHAPEYIWKCL

Peptide-87 [1] = biological target: T12, Peptide-87
T12 peptide: YCAGHAWQYINKCL

Peptide-126 = biological target: T13, Peptide-126
T13 peptide: YCEGHLPEYREKCL

Peptide-119 = biological target: T14, Peptide-119
T14 peptide: YCEGHEGIYFWKCL

Peptide-136 = biological target: T15, Peptide-136
T15 peptide: YCEGHAPEYIGKCL

Peptide-41 = biological target: T16, Peptide-41
T16 peptide: MDWCPRDLWVHCFA

Peptide-87 [2] = biological target: T12, Peptide-87
Peptide-79 = biological target: T17, Peptide-79
T17 peptide: ACDTYFAGMINECF

Peptide-92 [3] = biological target: T18, Peptide-92
T18 peptide: SCAAGASYAWPYCL

Peptide-84 = biological target: T19, Peptide-84
T19 peptide: YCAGHSPINIGKCL

Peptide-144 = biological target: T20, Peptide-144
T20 peptide: LCAAGATYPWPLCL

Peptide-142 = biological target: T21, Peptide-142
T21 peptide: TCAAGATWSWPACF

Peptide-145 = biological target: T22, Peptide-145
T22 peptide: TCSAGAAYPWPLCL

Peptide-154 = biological target: T23, Peptide-154
T23 peptide: TCAAGAHYPWPACL

Peptide-139 = biological target: T24, Peptide-139
T24 peptide: TCSAGASYPWPLCL

Peptide-149 = biological target: T25, Peptide-149
T25 peptide: TCSAGATYEWPRCL

Peptide-141 = biological target: T26, Peptide-141
T26 peptide: TCSAGATYTWPKCF

Peptide-150 = biological target: T27, Peptide-150
T27 peptide: TCSAGAHYPWPICL

Peptide-151 = biological target: T28, Peptide-151
T28 peptide: SCSAGAAYYWPWCL

Peptide-140 = biological target: T29, Peptide-140
T29 peptide: TCAAGAAWPWPQCL

Peptide-138 = biological target: T30, Peptide-138
T30 peptide: LCAAGASWPWPVCL

Peptide-137 = biological target: T31, Peptide-137
T31 peptide: TCSAGATWPWPICL

Peptide-153 = biological target: T32, Peptide-153
T32 peptide: TCAAGATYLWPTCL

Peptide-147 = biological target: T33, Peptide-147
T33 peptide: LCAAGATYPWPTCL

Peptide-146 = biological target: T34, Peptide-146
T34 peptide: TCSAGAAYSWPACF

Peptide-148 = biological target: T35, Peptide-148
T35 peptide: SCSAGAHYPWPQCF

Peptide-152 = biological target: T36, Peptide-152
T36 peptide: TCSAGATWAWPLCF

Peptide-92 [4] = biological target: T18, Peptide-92
Peptide-143 = biological target: T37, Peptide-143
T37 peptide: TCAAGAAWGWPLCF

B1: anti-CD28 Fab (Fab, V domains shown)
VH: QVQLVQSGAEVKKPGASVKVSCKASGYTFTSYYIHWVRQAPGQGLEWIGSIYPGNVNTNYNEKFKDRATLTVDTSISTAYMELSRLRSDDTAVYFCTRSHYGLDWNFDVWGQGTTVTVSS
VL: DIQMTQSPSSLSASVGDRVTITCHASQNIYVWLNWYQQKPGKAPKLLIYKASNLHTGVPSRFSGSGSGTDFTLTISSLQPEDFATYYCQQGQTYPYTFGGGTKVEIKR
With B1 the EC50 (Peptide-128) was 59.4 nM, the EC50 (Peptide-125) was 12.1 nM and the EC50 (Peptide-127) was 1.7 nM. It also gave an EC50 (Peptide-129) of 30.5 nM, an EC50 (Peptide-121) of 7.1 nM and an EC50 (Peptide-120) of 3.1 nM. It also gave an EC50 (Peptide-124) of 28.1 nM, an EC50 (Peptide-135) of 2.1 nM and an EC50 (Peptide-132) of 3.2 nM. It also gave an EC50 (Peptide-117) of 11 nM, an EC50 (Peptide-123) of 8.1 nM and an EC50 (Peptide-87 [1]) of 30.6 nM. The EC50 (Peptide-126) was 3.4 nM, the EC50 (Peptide-119) was 128 nM and the EC50 (Peptide-136) was 44.9 nM. For the same binder, the EC50 (Peptide-41) was 490 nM, the EC50 (Peptide-87 [2]) was 49 nM and the EC50 (Peptide-79) was 97 nM. The EC50 (Peptide-92 [3]) was 54 nM, the EC50 (Peptide-84) was 337 nM and the EC50 (Peptide-144) was 5.6 nM. For the same binder, the EC50 (Peptide-142) was 4.5 nM, the EC50 (Peptide-145) was 4.4 nM and the EC50 (Peptide-154) was 4.2 nM. The EC50 (Peptide-139) was 5.3 nM, the EC50 (Peptide-149) was 12.8 nM and the EC50 (Peptide-141) was 15.7 nM. For the same binder, the EC50 (Peptide-150) was 10.6 nM, the EC50 (Peptide-151) was 112 nM and the EC50 (Peptide-140) was 2.6 nM. For the same binder, the EC50 (Peptide-138) was 13.1 nM, the EC50 (Peptide-137) was 2.1 nM and the EC50 (Peptide-153) was 20.5 nM. The EC50 (Peptide-147) was 25.8 nM, the EC50 (Peptide-146) was 24.3 nM and the EC50 (Peptide-148) was 19 nM. The EC50 (Peptide-152) was 15.6 nM, the EC50 (Peptide-92 [4]) was 18.9 nM and the EC50 (Peptide-143) was 5.6 nM.

Source: US20260242478A1 (published 2026)
